Experimental data: the Human Domainome abundance scans (Beltran et al. 2025)
± gives the uncertainty stated by the source.

B1: E3 ubiquitin-protein ligase NEDD4, residues 836 to 881; numbered along this chain, P46934 (parent)
chain: EIEQGFLPKGWEVRHAPNGRPFFIDHNTKTTTWEDPRLKIPAHLRG

Variants of: B1
Test: abundance fitness (aPCA) (normalised: wild type 0, dead -1); higher = more abundant; growth selection in yeast, the domain comes from the species named
Settings: Homo sapiens

| Variant | abundance fitness |
| --- | --- |
| W11K | -0.409 ± 0.063 |
| I24H | -0.523 ± 0.079 |
| I24R | -0.609 ± 0.067 |
| I24G | -0.98 ± 0.12 |
| I24L | 0.003 ± 0.083 |
| I24E | -0.849 ± 0.16 |
| I24T | -0.701 ± 0.17 |
| I24C | -0.402 ± 0.071 |
| E1D | -0.219 ± 0.14 |
| E1K | -0.095 ± 0.48 |
| E1R | -0.07 ± 0.2 |
| H26T | -0.357 ± 0.079 |
| H26D | -0.515 ± 0.062 |
| H26V | -0.423 ± 0.038 |
| H26M | -0.262 ± 0.053 |
| H26Y | -0.749 ± 0.16 |
| H26S | -0.47 ± 0.051 |
| K39W | -0.298 ± 0.038 |
| K39C | 0.32 ± 0.072 |
| T30N | -0.566 ± 0.11 |
| T30D | -0.347 ± 0.085 |
| T30P | -0.961 ± 0.19 |
| T30L | -0.297 ± 0.04 |
| T30A | -0.368 ± 0.075 |

| Variant | abundance fitness |
| --- | --- |
| T30H | 0.276 ± 0.087 |
| L7W | -0.577 ± 0.11 |
| L7P | -0.473 ± 0.096 |
| L7A | -0.599 ± 0.061 |
| P8W | -0.856 ± 0.15 |
| P8G | -0.625 ± 0.067 |
| P8Q | -0.814 ± 0.25 |
| P8F | -0.341 ± 0.38 |
| T28K | -0.251 ± 0.042 |
| T28G | -0.187 ± 0.041 |
| T28D | -0.327 ± 0.091 |
| T28H | -0.338 ± 0.073 |
| F22L | -0.151 ± 0.04 |
| F22R | -0.745 ± 0.079 |
| F22I | -0.168 ± 0.07 |
| Q4S | -0.024 ± 0.043 |
| Q4E | 0.12 ± 0.077 |
| Q4G | -0.09 ± 0.045 |
| Q4T | -0.242 ± 0.075 |
| N18C | -0.256 ± 0.093 |
| N18T | -0.29 ± 0.033 |
| N18E | -0.232 ± 0.064 |
| N18V | -0.83 ± 0.076 |
| N18L | -0.696 ± 0.087 |

| Variant | abundance fitness |
| --- | --- |
| N18Q | -1.06 ± 0.34 |
| N18M | -0.907 ± 0.065 |
| G19W | -0.833 ± 0.1 |
| G19M | -0.827 ± 0.094 |
| G19D | -0.943 ± 0.26 |
| G19H | -0.496 ± 0.27 |
| A16L | -0.345 ± 0.1 |
| A16Q | -0.353 ± 0.069 |
| A16T | 0.127 ± 0.079 |
| A16R | -0.668 ± 0.099 |
| L38D | 0.036 ± 0.056 |
| L38V | -0.051 ± 0.041 |
| W33D | -0.484 ± 0.13 |
| W33F | -0.142 ± 0.066 |
| T31E | -0.44 ± 0.083 |
| T31V | -0.185 ± 0.047 |
| T31M | -0.234 ± 0.052 |
| T31Q | -0.158 ± 0.13 |
| T31N | -0.727 ± 0.15 |
| G46D | -0.088 ± 0.16 |
| D25I | -0.792 ± 0.34 |
| D25V | -0.981 ± 0.061 |
| D25G | -0.836 ± 0.045 |
| R14N | -0.783 ± 0.17 |

| Variant | abundance fitness |
| --- | --- |
| R14G | -0.114 ± 0.044 |
| R14D | -0.289 ± 0.034 |
| R14I | -0.556 ± 0.094 |
| R14Y | -0.407 ± 0.054 |
| R14C | -0.07 ± 0.047 |
| R14Q | -0.121 ± 0.08 |
| R14P | -0.407 ± 0.13 |
| R14E | -0.539 ± 0.091 |
| K29M | -0.303 ± 0.081 |
| D35A | -0.216 ± 0.081 |
| D35L | -0.623 ± 0.055 |
| D35P | -0.582 ± 0.12 |
| R20E | -0.035 ± 0.055 |
| R20Y | -0.577 ± 0.1 |
| R20W | -0.946 ± 0.14 |
| T32F | -0.574 ± 0.042 |
| T32E | -0.655 ± 0.048 |
| T32Q | 0.038 ± 0.082 |
| R37Y | -0.784 ± 0.076 |
| R37Q | -0.665 ± 0.13 |
| R37C | -0.611 ± 0.064 |
| R37P | -0.867 ± 0.12 |
| R37A | -0.567 ± 0.056 |
| H43V | -0.052 ± 0.047 |

| Variant | abundance fitness |
| --- | --- |
| H43D | -0.177 ± 0.087 |
| H43G | -0.078 ± 0.046 |
| H43L | -0.107 ± 0.038 |
| P36K | -0.846 ± 0.079 |
| P36M | -1.06 ± 0.16 |
| P36H | -0.71 ± 0.18 |
| P36L | -1.01 ± 0.064 |
| P17A | -0.075 ± 0.064 |
| P17V | -0.191 ± 0.045 |
| P17I | -0.012 ± 0.15 |
| P17Q | -0.585 ± 0.17 |
| P17R | -0.178 ± 0.053 |
| R45I | -0.454 ± 0.1 |
| R45S | -0.131 ± 0.054 |
| R45K | -0.016 ± 0.059 |
| R45E | 0.153 ± 0.069 |
| F6S | 0.16 ± 0.032 |
| F6M | -0.345 ± 0.061 |
| F6H | 0.05 ± 0.058 |
| F6Y | 0.018 ± 0.035 |
| F6G | 0.09 ± 0.04 |
| E12I | -0.633 ± 0.099 |
| E12T | -0.274 ± 0.059 |
| E12M | -0.89 ± 0.14 |

| Variant | abundance fitness |
| --- | --- |
| K9R | -0.205 ± 0.056 |
| K9M | -0.344 ± 0.06 |
| L44K | -0.154 ± 0.072 |
| L44R | -0.221 ± 0.042 |
| L44P | 0.119 ± 0.068 |
| L44T | -0.027 ± 0.033 |
| L44M | -0.002 ± 0.081 |
| L44E | -0.07 ± 0.049 |
| L44S | -0.001 ± 0.056 |
| L44Y | -0.172 ± 0.039 |
| L44N | -0.34 ± 0.089 |
| I40E | -0.233 ± 0.1 |
| I40P | -0.335 ± 0.15 |
| I40W | -0.055 ± 0.045 |
| I40Q | 0.085 ± 0.072 |
| I40R | -0.018 ± 0.058 |
| P41H | 0.051 ± 0.088 |
| P41V | -0.141 ± 0.042 |
| P41S | -0.139 ± 0.064 |
| P41T | -0.158 ± 0.078 |
| P41F | -0.57 ± 0.15 |
| I2D | 0.035 ± 0.089 |
| I2F | -0.129 ± 0.095 |
| I2R | -0.141 ± 0.031 |

| Variant | abundance fitness |
| --- | --- |
| I2A | -0.152 ± 0.05 |
| I2E | -0.037 ± 0.094 |
| G10L | -0.95 ± 0.12 |
| G5H | -0.313 ± 0.095 |
| G5A | -0.064 ± 0.054 |
| A42P | -0.075 ± 0.074 |
| A42G | -0.013 ± 0.04 |
| A42T | -0.22 ± 0.08 |
| P21V | -0.149 ± 0.057 |
| P21D | -0.445 ± 0.039 |
| P21C | -0.084 ± 0.06 |
| P21E | -0.149 ± 0.059 |
| P21Y | 0.055 ± 0.064 |
| P21Q | -0.058 ± 0.062 |
| E3I | -0.15 ± 0.11 |
| E3C | -0.141 ± 0.078 |
| E3N | 0.097 ± 0.083 |
| E3Q | 0.098 ± 0.066 |
| E3F | -0.109 ± 0.098 |
| E3D | -0.455 ± 0.11 |
| E34G | -0.51 ± 0.066 |
| E34R | -0.307 ± 0.034 |
| E34Q | -0.345 ± 0.11 |
